# Target: high molecular weight-melanoma associated antigen (HMW-MAA), human (human) (UniProt Q6UVK1)
# Test: competition cell ELISA on HMW-MAA+ SK-MEL-28 cells, 1 h at 4 °C, SA-HRP; competitor: biotinylated scFv C21 (0.25 µg/well); axis gives µg of mAb, not a concentration
# high molecular weight-melanoma associated antigen (HMW-MAA), human (human), sequence (Q6UVK1 30-2322): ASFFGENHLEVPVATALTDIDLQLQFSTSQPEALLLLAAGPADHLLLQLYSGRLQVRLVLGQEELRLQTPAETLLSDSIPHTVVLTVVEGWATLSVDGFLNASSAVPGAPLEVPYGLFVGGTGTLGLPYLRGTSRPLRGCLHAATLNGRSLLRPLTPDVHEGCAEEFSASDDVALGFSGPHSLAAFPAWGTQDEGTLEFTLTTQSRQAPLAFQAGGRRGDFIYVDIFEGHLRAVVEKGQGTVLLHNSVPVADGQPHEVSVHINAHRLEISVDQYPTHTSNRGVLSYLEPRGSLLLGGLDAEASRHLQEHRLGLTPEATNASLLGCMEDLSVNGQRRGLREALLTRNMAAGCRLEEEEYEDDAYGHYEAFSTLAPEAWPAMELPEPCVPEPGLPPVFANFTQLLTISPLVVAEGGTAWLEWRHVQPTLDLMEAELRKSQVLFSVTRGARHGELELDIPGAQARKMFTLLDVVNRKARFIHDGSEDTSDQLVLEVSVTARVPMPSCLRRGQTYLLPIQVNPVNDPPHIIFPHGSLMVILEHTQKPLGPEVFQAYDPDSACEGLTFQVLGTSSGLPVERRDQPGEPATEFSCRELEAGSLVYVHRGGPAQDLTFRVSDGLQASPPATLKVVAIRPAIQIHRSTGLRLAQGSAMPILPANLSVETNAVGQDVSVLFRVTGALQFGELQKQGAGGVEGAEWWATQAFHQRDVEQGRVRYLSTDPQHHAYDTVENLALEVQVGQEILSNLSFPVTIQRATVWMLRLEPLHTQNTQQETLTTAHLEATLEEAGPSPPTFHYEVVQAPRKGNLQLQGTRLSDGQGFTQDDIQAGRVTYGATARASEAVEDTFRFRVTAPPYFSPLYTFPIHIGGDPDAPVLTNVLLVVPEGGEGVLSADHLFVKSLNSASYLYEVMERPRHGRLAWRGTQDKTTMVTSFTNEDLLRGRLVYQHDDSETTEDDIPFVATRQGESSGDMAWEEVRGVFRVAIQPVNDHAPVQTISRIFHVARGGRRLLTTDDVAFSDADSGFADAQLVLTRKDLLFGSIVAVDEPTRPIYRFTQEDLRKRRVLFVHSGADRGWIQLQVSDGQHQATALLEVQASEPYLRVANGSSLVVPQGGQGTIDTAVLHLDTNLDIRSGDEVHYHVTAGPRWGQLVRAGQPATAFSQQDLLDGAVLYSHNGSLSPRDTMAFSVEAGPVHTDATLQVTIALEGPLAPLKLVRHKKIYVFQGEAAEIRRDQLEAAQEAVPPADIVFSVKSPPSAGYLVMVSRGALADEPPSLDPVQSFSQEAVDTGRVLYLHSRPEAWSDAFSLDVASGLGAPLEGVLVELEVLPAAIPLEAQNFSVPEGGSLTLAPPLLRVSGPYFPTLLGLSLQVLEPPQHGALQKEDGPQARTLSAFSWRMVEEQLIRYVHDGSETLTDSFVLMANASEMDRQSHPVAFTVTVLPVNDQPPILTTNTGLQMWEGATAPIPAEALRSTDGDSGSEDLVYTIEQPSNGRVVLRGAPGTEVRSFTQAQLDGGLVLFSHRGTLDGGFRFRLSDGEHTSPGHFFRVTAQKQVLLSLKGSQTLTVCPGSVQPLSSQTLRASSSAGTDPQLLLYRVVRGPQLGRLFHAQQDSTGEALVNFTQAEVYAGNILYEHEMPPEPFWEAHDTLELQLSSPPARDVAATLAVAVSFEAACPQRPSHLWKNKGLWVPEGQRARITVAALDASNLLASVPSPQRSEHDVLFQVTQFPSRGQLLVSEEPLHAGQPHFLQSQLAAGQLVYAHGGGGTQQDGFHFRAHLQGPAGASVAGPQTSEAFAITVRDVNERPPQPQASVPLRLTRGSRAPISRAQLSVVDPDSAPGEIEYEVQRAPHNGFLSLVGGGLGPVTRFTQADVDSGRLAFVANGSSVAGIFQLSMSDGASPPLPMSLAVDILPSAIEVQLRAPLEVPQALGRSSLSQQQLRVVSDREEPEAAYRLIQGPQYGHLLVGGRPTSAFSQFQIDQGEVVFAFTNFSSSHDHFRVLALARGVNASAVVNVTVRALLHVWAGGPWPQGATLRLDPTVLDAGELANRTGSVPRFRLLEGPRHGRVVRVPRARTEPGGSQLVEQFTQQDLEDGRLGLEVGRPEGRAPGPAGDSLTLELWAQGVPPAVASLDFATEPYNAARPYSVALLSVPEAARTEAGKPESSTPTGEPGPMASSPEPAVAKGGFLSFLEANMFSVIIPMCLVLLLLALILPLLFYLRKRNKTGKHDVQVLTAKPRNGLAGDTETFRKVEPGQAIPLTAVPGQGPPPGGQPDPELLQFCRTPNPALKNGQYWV
substance,measurement,value
HMW-MAA-specific mouse mAb VF1-TP34 (antibody),IC50 (read off the curve),0.03 µg

# Source: patent US20110200608A1
